Experimental data taken from the supplement of paper PMC9170038.

System: MS2 coat protein
Assay: apparent KD of MS2 coat protein; designed switch direction (-1 OFF switch, 1 ON switch): -1; higher = weaker reporter binding
Method in brief: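 Three titration conditions were used: no input, 200 uM small-molecule ligand, and an oligonucleotide input. In each, SNAP-549-labelled MS2 coat protein was raised from 0.7 or 1.5 nM, doubling, to 3 µM over designed RNA switches transcribed on Illumina chips by stalled E. coli RNA polymerase. Curve fits of normalised cluster fluorescence gave values whose per-design median over clusters is the apparent KD.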

[1] = input ligand: microRNA oligo, concentration not stated
[2] = Eterna round: R95, input ligand: FMN 200 uM
[3] = Eterna round: R95, input ligand: microRNA oligo, concentration not stated
[4] = Eterna round: R95, input ligand: none

Sequence	apparent KD of MS2 coat protein (input ligand: FMN 200 uM) [nM]	apparent KD of MS2 coat protein (input ligand: none) [nM]	apparent KD of MS2 coat protein [3] [nM]	other results
CUGGACUGAGGAUAUUGUGCUGCUGACAUGAGGAUCACCCAUGUAUGUUAACUCGGCCGUCGAGAAGGCAGACAGG [BotMod 18 - Jieux - Exclusion 5] (Eterna round: R97, puzzle: Exclusion 5)	16.5	19.1		
CGUGGUAGGCAGGAUAUUUUAGACAAUUACUUGAAAGAAGGGCCUACAUGAGGAUCACCCAUGUGCUCUUCUUG [EX6 B.3] (Eterna round: R97, puzzle: Exclusion 6)	16.9	16.8		
UGCAGACGAGGAUAUAAAUUUAAAUACAUGAGGAUCACCCAUGUAUAAAUGUAUUUAAAUUUAGAAGGCGUCUGCU [E5/12-A4] (Eterna round: R97, puzzle: Exclusion 5)	500	606		
GGAUAUAACGUAGGAUAUCUGAGAAACAGACGAAGAGAAGGACGACAUGAGGAUCACCCAUGUGAUCUAUCAAUAUUAUACAUG [Prohibition 99 - Jieux - Exclusion NG 1] (Eterna round: R96, puzzle: Exclusion NG 1)	412	351		apparent KD of MS2 coat protein [1]: 330 nM
UUUGAAUAGGUAGGAUAUACUUUCAAUUUUCUUUUCCUUACAUGAGGAUCACCCAUGUUUACAUUGUAGAAGGACCUCAUUGAU [JR_ExcNG2_Sub048] (Eterna round: R96, puzzle: Exclusion NG 2)				apparent KD of MS2 coat protein [1]: 193 nM
CAGUACUGAGGAUAUACAUGAGGAUCACCCAUGUGGUCCAGCUAGGAAACUAGCAAAAGUAGAAGGCAGUACUG [salish99_ex3_r3_083] (puzzle: Exclusion 3)			71.5	apparent KD of MS2 coat protein [2]: 12.5 nM; apparent KD of MS2 coat protein [4]: 218 nM
UAAAAGCGGAAGGAUAUGUGUCUAAAGUCUGUAGCAGAAGGUCCGACAUGAGGAUCACCCAUGUGACCUGGUGC [Biatceis] (puzzle: Exclusion 6)			10.3	
ACAAAGCUAGGAUAUGUGGCGGAUAACAUGAGGAUCACCCAUGUGAGCUCACAGAUCCGAGCAGAAGGAGCGAUUA [EX5 A.10] (Eterna round: R97, puzzle: Exclusion 5)	15.3	14.6		
GUUUUCAGACGGAGAUCCUACAUGAGGAUCACCCAUGUCUCUCUUGUUUUUUGCUCGUCUUUUCCUCCUCUGUUCUC [Elimod 32 - Jieux - Sensor, turn-off variant 1] (Eterna round: R97, puzzle: Sensor, turn-off variant 1)	447	515		
GAUUAAUUAAUUAAUUAAUACAUGAGGAUCACCCAUGUAAUUUAAGAUCCUUAUACAAGCUUUGAUCUCGUAAUUAA [Stov1/4-A3] (Eterna round: R97, puzzle: Sensor, turn-off variant 1)	120	120		
UGCGGUAGAGGAUAUACGUAGAAUUAGGUUCAUGUAAAACUACAUGAGGAUCACCCAUGUAGAAGGCUAUCGCU [JL-ex2-4.30 Eli mod] (Eterna round: R97, puzzle: Exclusion 2)	85.4	21.2		
UGCCUAGCAGGAUAUGCUCGGGAUUACAUGAGGAUCACCCAUGUGACUGAUUGUUGUCUUGCAGAAGGGCUAGGGA [JL-EX5-4.05 ViennaUCT mod] (Eterna round: R97, puzzle: Exclusion 5)	443	99.7		
CACCGUUACUGAGGAUAUCCUACAUGAGGAUCACCCAUGUAAUAAAUGAGAAUUUCGGAUGUAUUGGAGAAGGCAGAAAUCGGC [Ostricism 62 - Jieux - Exclusion NG 2] (Eterna round: R96, puzzle: Exclusion NG 2)	52.7	58.4		apparent KD of MS2 coat protein [1]: 48.4 nM
CGGACACCAGUAGGAUAUGUAGGAUAUGUUGUUGAGGAUCACCCAACAAAUUAAACGACAGAAGGACAGAAGGACUGUUCUCCU [pwkr exNG2 2xFMN 1xF5.2] (Eterna round: R96, puzzle: Exclusion NG 2)	18.6	24.7		apparent KD of MS2 coat protein [1]: 14.5 nM
CCGGAAUUGCAGGAUAUAGGAGUCGAUAGACACCUAGAAGGGCAGACAUGAGGAUCACCCAUGUGUCCUACCGG [Fiskers Ex 6 - 84] (puzzle: Exclusion 6)			17.4	
UACAUGAGGAUCACCCAUGUUUUGUCGUGUAUGGUAUUUAUCUAGGAUAUCAUUUUAUUUGGUUAUGAGAAGGAGAAUAUUAAU [JMF's solution 92] (Eterna round: R96, puzzle: Exclusion NG 3)	24.1	30.5		apparent KD of MS2 coat protein [1]: 22.7 nM

Sequence	apparent KD of MS2 coat protein (input ligand: FMN 200 uM) [nM]	apparent KD of MS2 coat protein (input ligand: none) [nM]	apparent KD of MS2 coat protein [3] [nM]	other results
CAUUACUGCAAGCUAUGGGACAUGAGGAUCACCCAUGUUCGUCUUAUUGAUCUAGGUACGCUGACGUACCUAGAUCU [JL-sv1-2.21 Brourd mod] (puzzle: Sensor v3, turn-off variant 1)			21.4	apparent KD of MS2 coat protein [2]: 16.3 nM; apparent KD of MS2 coat protein [4]: 15 nM
AAUGUCUGAGGAUAUCGUUUUUUGUACAUGAGGAUCACCCAUGUCCAAUUUUGUAUAUUACGAGAAGGCAGUGGAA [JR_E5_Sub089] (puzzle: Exclusion 5)			14.6	
UCCUAACAUGAGGAUCACCCAUGUCAGGAUAUGAUACUAUGUACUUCGGUACAUAGUAUCAGAAGGGACAUCCU [Ex1-3: 9] (puzzle: Exclusion 1)			14.7	
CCUCUACAUGAGGAUCACCCAUGUGAGGAUAUAAGAUUGCGAAUUCCGCACUACGGUCUUAGAAGGCGCGUGGA [Riarve] (puzzle: Exclusion 1)			15.7	
CAUUACUACAAGCUUGGGAACAUGAGGAUCACCCAUGUUCGUCUUAUUGAUCUAGGUACGCUGACGUACCUAGAUCU [JL-sv1-2.24 Brourd mod] (puzzle: Sensor v3, turn-off variant 1)			21.7	apparent KD of MS2 coat protein [2]: 14.3 nM; apparent KD of MS2 coat protein [4]: 13.3 nM
UUUUGGCAAGCGAGAUCCCACAUGAGGAUCACCCAUGUUGACCAUGGUUUCCAUGGUCAUUUUGCUCGUCUUGUGUG [jl TITIN mod 1] (Eterna round: R97, puzzle: Sensor, turn-off variant 1)	31.3	31.8		
AAGAAGACAGGAUAUACAUGAAAGAAAGAAAAGAAAAGAAAACAUGAGGAUCACCCAUGUAGAAGGGUCAAGAA [EteRNA is fun!] (Eterna round: R96, puzzle: Exclusion 2)				apparent KD of MS2 coat protein [1]: 35.8 nM
CGGUCACUAGGAUAUCAGGAAAACUACAUGAGGAUCACCCAUGUACUGAGUGUAGGAGACUGAGAAGGAGUUCUUA [EX5 C.4] (Eterna round: R97, puzzle: Exclusion 5)	31.5	22.3		
AAGUAGACGGUGAGGAUAUAGGUCGAAUGACCGAUUUAGAAGGCACAUGAGGAUCACCCAUGUGGGUAACGUCG [Brourd's EX4 #30] (Eterna round: R97, puzzle: Brourd's mod of Exclusion 4)	24.1	27.5		
GAUCCACAUGAGGAUCACCCAUGUCAGGAUAUGAUACUAUGUACUUCGGUACAUAGUAUCAGAAGGGACAGAUC [Ex1-3: 2] (puzzle: Exclusion 1)			162	
CCGGCAUGGUGCGGUAGUUGUACAACAUGAGGAUCACCCAUGUAGGAUAUGCGCGUGGUCACGCCGCAGAAGGACAACGUAUGG [Random, 25% A] (Eterna round: R96, puzzle: Exclusion NG 3)	668	96		apparent KD of MS2 coat protein [1]: 89.4 nM
AGAUGUAGAUACCGAUCCUACAUGAGGAUCACCCAUGUAGCUAGACGUGCUCGCGUUGCUCGUCAGACUACCAGUAG [salish99_TOv1_r3_088] (puzzle: Sensor v3, turn-off variant 1)			286	apparent KD of MS2 coat protein [2]: 279 nM; apparent KD of MS2 coat protein [4]: 382 nM
GCUGGUAUAGGAUAUACGUAAGACGUGGUCCACAGUUAAUUACAUGAGGAUCACCCAUGUAGAAGGAUGGAAGC [Eternabot (L2) Solution 95] (Eterna round: R97, puzzle: Exclusion 2)	298	65.8		
AUGGGUCCUCUCGGAGCGACAUGAGGAUCACCCAUGUGUGUUGAGGAUAUCCACUGCUAAGGACGGGAGAAGGCAGUGUACUGU [Ex NG3 #85] (Eterna round: R96, puzzle: Exclusion NG 3)	29.8	32.9		apparent KD of MS2 coat protein [1]: 23.5 nM
GUAGAGUCAGGAUAUACAAGAUCGAUAGAUCAAAGGUCCAUACAUGAGGAUCACCCAUGUAGAAGGGACUCUAC [Mat - Exclusion 2 - Eli Mod - D9] (Eterna round: R97, puzzle: Exclusion 2)	37.2	17.9		
